From patent US20190060405A1

Target: rat CSF1-R (CD115) expressed on pDCs (rat) (UniProt Q00495)
Test: cell-based or functional assay

Sequence of UniProt Q00495 (Q00495 20-978): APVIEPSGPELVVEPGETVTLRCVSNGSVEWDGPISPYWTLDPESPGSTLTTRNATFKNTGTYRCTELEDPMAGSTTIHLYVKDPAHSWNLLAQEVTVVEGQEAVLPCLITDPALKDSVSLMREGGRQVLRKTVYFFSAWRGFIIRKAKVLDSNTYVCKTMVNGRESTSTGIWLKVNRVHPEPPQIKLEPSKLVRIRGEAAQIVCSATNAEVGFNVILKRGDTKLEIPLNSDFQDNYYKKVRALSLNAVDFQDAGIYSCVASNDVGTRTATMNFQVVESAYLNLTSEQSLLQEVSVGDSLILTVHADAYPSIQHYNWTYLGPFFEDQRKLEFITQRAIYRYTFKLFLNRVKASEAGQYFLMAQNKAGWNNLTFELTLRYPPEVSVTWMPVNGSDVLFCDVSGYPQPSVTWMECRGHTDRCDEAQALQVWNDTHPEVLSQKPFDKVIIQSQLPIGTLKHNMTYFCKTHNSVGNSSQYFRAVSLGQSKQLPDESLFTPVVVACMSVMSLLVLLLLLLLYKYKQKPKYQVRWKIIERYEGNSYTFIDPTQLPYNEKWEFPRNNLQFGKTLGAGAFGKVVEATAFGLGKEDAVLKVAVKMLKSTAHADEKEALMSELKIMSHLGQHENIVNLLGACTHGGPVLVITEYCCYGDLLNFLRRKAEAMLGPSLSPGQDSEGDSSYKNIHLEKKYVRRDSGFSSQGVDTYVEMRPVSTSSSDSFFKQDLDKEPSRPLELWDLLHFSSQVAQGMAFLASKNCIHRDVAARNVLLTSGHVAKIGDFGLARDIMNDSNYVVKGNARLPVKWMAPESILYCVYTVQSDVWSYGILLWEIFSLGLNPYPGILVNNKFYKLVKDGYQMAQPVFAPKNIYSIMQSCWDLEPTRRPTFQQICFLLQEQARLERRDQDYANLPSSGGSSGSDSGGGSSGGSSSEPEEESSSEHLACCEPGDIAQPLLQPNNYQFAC

suppression of CD4+CD25- T cells proliferation (MLR, CFSE): 93.5%
Substance: Rat M-CSF protein (ab56288, ABCAM) (from UniProt Q8JZQ0 33-187) (ligand)
